Results taken from patent publication US20260102468A1, “COMPOSITIONS AND METHODS FOR MARCO INHIBITION AND IMPROVED DRUG DELIVERY” (BOARD OF REGENTS, THE UNIVERSITY OF TEXAS SYSTEM, priority 2022, published 2026).

T1: MARCO (Mus musculus, UniProt Q60754)
T1 construct: secretion signal peptide (N); host or cells: Expi293 cells
T1 sequence (Q60754 with tags, fused parts or gaps): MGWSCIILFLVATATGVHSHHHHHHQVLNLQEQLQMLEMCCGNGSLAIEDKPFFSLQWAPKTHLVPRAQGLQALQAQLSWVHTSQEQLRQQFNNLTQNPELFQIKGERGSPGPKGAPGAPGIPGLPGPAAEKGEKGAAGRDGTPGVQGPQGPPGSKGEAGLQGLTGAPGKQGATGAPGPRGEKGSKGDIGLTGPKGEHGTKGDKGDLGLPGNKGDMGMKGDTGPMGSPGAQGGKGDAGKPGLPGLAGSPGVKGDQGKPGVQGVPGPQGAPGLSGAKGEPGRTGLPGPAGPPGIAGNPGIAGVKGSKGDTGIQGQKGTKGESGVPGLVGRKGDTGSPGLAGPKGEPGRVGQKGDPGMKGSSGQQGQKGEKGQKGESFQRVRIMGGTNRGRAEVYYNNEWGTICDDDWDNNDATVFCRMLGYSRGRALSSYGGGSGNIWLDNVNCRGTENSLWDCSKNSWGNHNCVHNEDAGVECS


Assays:
[1] = system: liver CD11b+ cells; assay: Doxorubicin uptake by liver CD11b+ cells in treated mice (flow cytometry); type: in vivo; conditions: flow cytometry of digested liver cells
[2] = design: species or system mice; conditions: mouse, in vivo, iv
Experimental: Anti-MARCO, monoclonal MARCO antibody, clone ED31, 2.5 mg/kg; rMARCO, recombinant MARCO protein SRCR domain, 0.3 mg/kg; NP, 100 nm nanoparticles, 10^11 particles injected through tail vain. n=3 mice for each treatment group at each time point. One way ANOVA with correction for multiple comparison was used to compare the difference between NP and other treatment groups. Error bars are means±SD.
Blockade of MARCO-nanoparticle interaction decreased nanoparticle uptake by liver in mice. Two strategies for blocking the MARCO-nanoparticle interaction were tested: with antibody to directly block the MARCO receptors on the cell or with recombinant MARCO protein to saturate the MARCO binding capacity of the particles. Young female C57BL6 background mice (aged 6 weeks) were intravenously injected with fluorescence-labelled 100 nm PEGylated polystyrene nanoparticles (NP, 10^11 particles per 20 g of body weight) with or without recombinant MARCO protein (SRCR domain, 0.3 mg/kg). Liver IVIS imaging was done 4 h after the injection. […] Unpaired t-test.

[3] = system: macrophages; assay: Nanoparticle uptake (phagocytosis) by macrophages after MARCO knockdown or blockade; type: cell-based, mouse; conditions: with or without incubation with recombinant MARCO protein
Experimental: The effect of MARCO expression on nanoparticle uptake by macrophages in vitro was tested. […] On day 5 following macrophage collection and culture, the siRNAs were mixed with the DharmaFECT 4 transfection reagent (Horizon, T-2004-02) at a final concentration of 100 nM, after which the cells were incubated with the siRNA for 48 hours. The siRNAs used in this study were as follows: Control siRNA (Cell Signaling Technology, 6568S) and Marco siRNA (Millipore Sigma, SASI_Mm01_00200135, SASI_Mm02_00319301).
Scale bar=50 μm. White arrows indicate cells that have taken up nanoparticles. […] Unpaired t-test.
For the nanoparticle phagocytosis assay, cells were plated in Costar 24-well Clear Flat Bottom Ultra-Low Attachment Multiple Well Plates (Corning, 3473) at a density of 10^5 cells/well. Nanoparticles or drug were added to the wells at the following concentrations: nanoparticles, 10^2-10^4/cell; Abraxane, 1 μg/mL; doxorubicin (Doxil), 20 μg/mL. Plates were then transferred to a cell culture incubator, and 2 hours later the cells were collected and washed followed by fixation with 4% paraformaldehyde. The cells were stained with fluorescence-labeled antibodies and analyzed by flow cytometry. The mean fluorescence intensity or the percentage of fluorescence-positive cells was used to compare the uptake of nanoparticles or drug.

[4] = molecular target: T1, MARCO; assay: Binding of nanoparticles with additional MARCO after saturation; conditions: pre-incubation with saturation doses of SRCR or ECD
Experimental: (§1) Consistent with a previous report (Brannstrom, A., et al. 2002. Biochem Biophys Res Commun 290, 1462-1469), the SRCR^R→A and SRCR^Δ mutations of MARCO were not expressed. […] Next, the binding capacity of MARCO to particles and nanomedicine was tested. Centrifugal filters were used to isolate unbound MARCO after incubating the SRCR (0.1 mg/mL) with different concentrations of nanoparticles. The MARCO recombinant proteins (0.1 mg/mL SRCR, 0.5 mg/mL ECD, or 0.4 mg/mL ECD^Δ) were incubated with nab-paclitaxel (5 mg/mL, paclitaxel concentration). After 15 min at room temperature with gentle shaking, the mixture was further incubated with the Dynabeads His-Tag isolation and Pulldown (ThermoFisher, Cat. #10103D). After magnetic separation and three washes with PBS, the beads were boiled in western blot sample buffer for subsequent western blotting. Primary antibodies used for western blots were albumin, CST, Cat. #4929, 1:1000; and His-Tag, CST, Cat. #2365, 1:1000. To test the binding capacity of MARCO, 0.1 mg/mL of SRCR was incubated for 15 min at room temperature with different concentrations of nab-paclitaxel or nanoparticles. The mixture was centrifuged through a 30-kDa cutoff filter (Millipore, UFC903096) at 1000 g for 30 minutes. The unbound SRCR in the lower part of the tube was examined by western blotting. […]

[5] = system: E0771 tumor cells; assay: E0771 breast cancer mouse model, DOXIL plus MARCO blockade; type: in vivo, mice; conditions: DOXIL 2 mg/kg + SRCR 0.3 mg/kg
Experimental: For this study, one million E0771 tumor cells were implanted in young female C57BL6 mice (aged 6 weeks old). Tumor growth was measured every 3 days with calipers. Tumor volume was calculated as: Volume=0.5×Length× Width^2. When tumor volume reached around 60-80 mm^3 the treatment was started. The mice were treated with Doxil (DOXIL®, 2 mg/kg) or DOXIL® plus MARCO blockade agent (MARCO recombinant protein, SRCR domain, 0.3 mg/kg). 0.9% sodium chloride was used as a control. All agents were injected intravenously 2 times each week for a total of 5 treatments. FIGS. 9A and 33A-33B show growth curves for the E0771 mice treated by DOXIL® or DOXIL® plus MARCO blockade. n=5-6 mice in each treatment arm. Un-paired t-test was used to compare tumor volumes at day 18. […] FIGS. 33C-33D show survival curves of young and old mice bearing E0771 tumors in the groups treated with Doxil (DOXIL®, 2 mg/kg) or DOXIL® plus MARCO blockade agent (MARCO recombinant protein, SRCR domain, 0.3 mg/kg).
Control vs. MARCO or Doxil vs. DoxM were compared with unpaired/tests. Error bars are means±S.E.M. The present inventors used the same experimental setup with the breast E0771 tumor model and treatment doses as the young animals (DOXIL®, 2 mg/kg, and/or MARCO protein scavenger receptor cysteine-rich (SRCR) domain, 0.3 mg/kg).

[6] = system: nab-paclitaxel; assay: Pull-down of nab-paclitaxel by recombinant MARCO proteins (Western blot of albumin); type: binding; conditions: 0.1 mg/mL SRCR, 0.5 mg/mL ECD or 0.4 mg/mL ECD^Δ with nab-paclitaxel 5 mg/mL, His-tag pulldown
Experimental: as §1

[7] = system: E0771 tumor cells; assay: E0771 breast cancer mouse model, ABRAXANE plus MARCO blockade; type: in vivo, mice
Experimental: For this study, one million E0771 tumor cells were implanted in young female C57BL6 mice (aged 6 weeks old). Tumor growth was measured every 3 days with calipers. Tumor volume was calculated as: Volume=0.5×Length×Width^2. When tumor volume reached around 60-80 mm^3 the treatment was started. The mice were treated with paclitaxel-protein particles (ABRAXANE®, 20 mg/kg) or ABRAXANE® plus MARCO blockade agents (anti-MARCO antibody, 2.5 mg/kg; ECD (extracellular domain), MARCO protein extracellular domain, 1.5 mg/kg; SRCR, or MARCO protein scavenger receptor cysteine-rich (SRCR) domain, 0.3 mg/kg). IgG plus 0.9% sodium chloride was used as a control.
One-way analysis of variance with post hoc testing was used to compare tumor volumes at day 18 after treatment. Error bars are means±S.E.M. We used the same experimental setup with the breast E0771 tumor model and treatment doses as the young animals (ABRAXANE®, 20 mg/kg, and/or MARCO protein scavenger receptor cysteine-rich (SRCR) domain, 0.3 mg/kg).
To determine the specificity of the effects of recombinant MARCO protein blockade, additional control experiments in which mouse serum protein was used as an irrelevant protein control and the ECD^Δ as the minimal-binding MARCO control were performed.

Row | binding of nanoparticles with additional MARCO after saturation with recombinant MARCO [4] | Molecule | doxorubicin uptake by liver CD11b+ cells, young versus old mice [1] | number of nanoparticles in the liver [2] | nanoparticle uptake by macrophages with recombinant MARCO protein [3] | treatment outcome of Doxil, older mice ([5]; C57BL6 aged 50 weeks) | relative doxorubicin concentrations in tumors ([5]; Doxil fluorescence intensity per mg of tissue, IVIS) | binding with nab-paclitaxel [6] | treatment outcome of ABRAXANE, older mice ([7]; C57BL6 aged 50 weeks, ABRAXANE 20 mg/kg, SRCR 0.3 mg/kg or anti-MARCO antibody, day 18) | efficacy of combination treatment at increased SRCR concentration ([7]; nab-paclitaxel 20 mg/kg, SRCR 3 mg/kg vs 0.3 mg/kg) | therapeutic effect of ABRAXANE (tumor growth inhibition), young mice ([7]; young (6 weeks) female C57BL6, ABRAXANE 20 mg/kg i.v., antibody 2.5, ECD 1.5, SRCR 0.3 mg/kg, day 18)
1 | – | COc1cccc2c1C(=O)c1c(O)c3c(c(O)c1C2=O)C[C@@](O)(C(=O)CO)C[C@@H]3O[C@H]1C[C@H](N)[C@H](O)[C@H](C)O1 [doxorubicin] | took up more doxorubicin than did the older mice | – | – | – | – | – | – | – | –
2 | could not bind with additional MARCO | SRCR: recombinant mouse MARCO protein scavenger receptor cysteine-rich (SRCR) domain, SEQ ID NO: 2 (protein, MARCO SRCR) MGWSCIILFLVATATGVHSHHHHHHQRVRIMGGTNRGRAEVYYNNEWGTICDDDWDNNDATVFCRMLGYSRGRALSSYGGGSGNIWLDNVNCRGTENSLWDCSKNSWGNHNCVHNEDAGVECS | – | significantly reduced the number of nanoparticles in the liver | decreased nanoparticle uptake by macrophages | does not enhance the treatment outcome of Doxil in older mice | increased the relative doxorubicin concentrations in tumors | could strongly bind with nab-paclitaxel | does not enhance the treatment outcome of abraxane in older mice | nor did further increasing the concentration of SRCR enhance the efficacy of combination treatment | enhanced the inhibition of tumor growth in young mice treated with nab-paclitaxel
